Assay results taken from patent US20110250165A1.

B1: 33-Fc (Fc fusion, part only; not given: linker and human IgG1 hinge-Fc, not shown: another chain or arm of the molecule; a dimerising Fc or GST; small tags and cut ends)
VH: QVTLKESGGGVVQPGRSLRLSCAASGFTFTNYGLHWVRQAPGKGLEWVAVISHDGTKKYYADSVKGRFTISRDSSENTLYLQMNSLRPEDSALYYCARDGGYCSGGRCYSYGMDVWGQGTTVTVSS
VL: QSVLTQPPSASGTPGQRVTISCSGSRSNIGSNTVNWYQQLPGTAPKLLIYTNNQRPSGVPDRFSGSKSGTSASLAITGLQAEDEADYYCLSFDSSLTSYVFGTGTKVTVL
B2: 33-IgG1 (antibody, V domains shown)
VH: QVTLKESGGGVVQPGRSLRLSCAASGFTFTNYGLHWVRQAPGKGLEWVAVISHDGTKKYYADSVKGRFTISRDSSENTLYLQMNSLRPEDSALYYCARDGGYCSGGRCYSYGMDVWGQGTTVTVSS
VL: QSVLTQPPSASGTPGQRVTISCSGSRSNIGSNTVNWYQQLPGTAPKLLIYTNNQRPSGVPDRFSGSKSGTSASLAITGLQAEDEADYYCLSFDSSLTSYVFGTGTKVTVLG
B3: 2N-Fc (Fc fusion, part only; not given: linker and human IgG1 hinge-Fc, not shown: another chain or arm of the molecule; a dimerising Fc or GST; small tags and cut ends)
VH: EVQLVESGGGVVQPGRSLRLSCAASGFTFSSYGMHWVRQAPGKGLEWVAVISYDGSNKYYADSVKGRFTISRDNSKNTLYLQVSSLRAEDTAVYYCVRDLVAAAGTAFDIWGQGTTVTVSS
VL: QPVLTQPRSVSGSPGQSVTISCTGTISDVGGHNFVSWYQQNPGKAPKLIIFEVTKRPAGVPDRFSGSKSGNTASLTVSGLQAEDEGEYYCSSYGGSNDVIFGGGTKLSVL
B4: 20-Fc (Fc fusion, part only; not given: linker and human IgG1 hinge-Fc, not shown: another chain or arm of the molecule; a dimerising Fc or GST; small tags and cut ends)
VH: EVQLVQSGGGLVQPGGSLRLSCAASGFTFSSYAMSWVRQAPGKGLEWVANIKQDGSEKYYVDSVKGRFTISRDNAKNSLYLQMNSLRAEDTAVYYCARDQVSGITIFGGKWRSPDVWGQGTTVTVSS
VL: SSELTQDPAVSVALGQTVRITCQGDSLRSYYASWYQQKPGQAPVLVIYGKNNRPSGIPDRFSGSKSHNTAYLTITGAQAEDEADYFCNSRSGSQRVFGGGTKLTVL
B5: 6R-Fc (Fc fusion, part only; not given: VH-VL linker, hinge and IgG1 Fc, not shown: another chain or arm of the molecule; a dimerising Fc or GST; small tags and cut ends)
VH: QVQLQQSGPGLVKPSQTLSLTCAVSGDSVSSNFVAWNWIRQSPSRGLEWLGRTYYRSRWYNDYAVSVQSRIRVTPDTSKNQFSLHLDSVTPEDTAVYYCARGQHSGFDFWGQGTLVTVSS
VL: QSVLTQPPSVSKGLRQTATLTCTGNSNNVGNQGAAWLQQHQGHPPKLLSYRNNNRPSGISERFSASRSGNTASLTITGLQPEDEADYYCSAWDNRLKTYVFGTGGKVTVL

How the values were obtained:
[1] = biological target: rhesus macaque monkey CXCR4 (rhesus macaque) (UniProt P79394); test: flow cytometry, scFv-Fc on transfected 293T cells, FITC anti-human IgG
Sequence of rhesus macaque monkey CXCR4 (rhesus macaque) (P79394 whole entry): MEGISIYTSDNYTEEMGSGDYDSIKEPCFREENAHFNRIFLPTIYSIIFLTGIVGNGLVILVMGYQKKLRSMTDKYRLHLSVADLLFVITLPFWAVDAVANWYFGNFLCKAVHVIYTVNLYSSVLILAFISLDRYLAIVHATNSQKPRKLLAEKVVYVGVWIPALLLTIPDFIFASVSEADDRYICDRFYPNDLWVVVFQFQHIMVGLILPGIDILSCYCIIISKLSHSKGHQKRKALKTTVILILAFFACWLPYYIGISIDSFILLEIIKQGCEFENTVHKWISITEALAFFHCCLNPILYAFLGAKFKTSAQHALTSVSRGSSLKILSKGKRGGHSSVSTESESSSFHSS

[2] = biological target: Δ-X4; test: as above
[3] = biological target: human CXCR4 (wild type) (human) (UniProt P61073); test: as above
Sequence of human CXCR4 (wild type) (human) (P61073 whole entry): as the sequence (P79394 whole entry) above, with I24M, H35N, R38K, K146R, S176N, D214V counted along it

[4] = biological target: 2442 CXCR2/CXCR4 chimera; test: as above
[5] = biological target: CXCR2 (UniProt P25025); test: as above
Sequence of CXCR2 (P25025 whole entry): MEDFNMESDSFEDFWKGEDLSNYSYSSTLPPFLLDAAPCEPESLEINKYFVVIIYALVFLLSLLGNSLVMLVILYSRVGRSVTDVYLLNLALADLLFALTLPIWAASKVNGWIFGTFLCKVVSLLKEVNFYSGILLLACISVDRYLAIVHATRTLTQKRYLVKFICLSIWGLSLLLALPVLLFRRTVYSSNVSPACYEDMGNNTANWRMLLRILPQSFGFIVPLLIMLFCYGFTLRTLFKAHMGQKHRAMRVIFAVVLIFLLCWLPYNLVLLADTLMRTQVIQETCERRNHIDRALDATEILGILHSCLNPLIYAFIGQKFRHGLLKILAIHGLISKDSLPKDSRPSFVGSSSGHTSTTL

[6] = biological target: 4442 CXCR2/CXCR4 chimera; test: as above
[7] = biological target: mouse CXCR4 (mouse) (UniProt P70658); test: as above
Sequence of mouse CXCR4 (mouse) (P70658 whole entry): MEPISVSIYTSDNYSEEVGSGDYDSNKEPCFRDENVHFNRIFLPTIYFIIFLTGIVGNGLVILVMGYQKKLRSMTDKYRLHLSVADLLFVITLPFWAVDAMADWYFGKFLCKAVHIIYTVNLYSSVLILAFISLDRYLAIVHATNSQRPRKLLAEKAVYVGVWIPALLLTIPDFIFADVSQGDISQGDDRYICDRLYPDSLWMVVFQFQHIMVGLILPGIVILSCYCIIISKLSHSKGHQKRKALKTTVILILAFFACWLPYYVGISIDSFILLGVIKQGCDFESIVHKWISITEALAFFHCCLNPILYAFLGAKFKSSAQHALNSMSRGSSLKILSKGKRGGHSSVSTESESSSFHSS

[8] = biological target: 2444b CXCR2/CXCR4 chimera (human) (UniProt P25025); test: as above
Sequence of 2444b CXCR2/CXCR4 chimera (human) (P25025 other isoform, or with tags, fused parts or gaps mutant limits assumed): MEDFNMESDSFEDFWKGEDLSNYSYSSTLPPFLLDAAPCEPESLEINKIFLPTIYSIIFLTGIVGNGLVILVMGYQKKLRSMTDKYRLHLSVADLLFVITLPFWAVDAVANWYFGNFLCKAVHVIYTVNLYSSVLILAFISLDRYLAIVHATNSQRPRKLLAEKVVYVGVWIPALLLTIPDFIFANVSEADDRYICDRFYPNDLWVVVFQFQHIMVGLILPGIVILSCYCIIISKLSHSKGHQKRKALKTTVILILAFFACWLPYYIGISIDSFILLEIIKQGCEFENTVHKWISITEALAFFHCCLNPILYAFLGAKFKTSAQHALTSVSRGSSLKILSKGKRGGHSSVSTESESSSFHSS

[9] = biological target: 2242 CXCR2/CXCR4 chimera; test: as above
[10] = biological target: ΔN25-CXCR4 (human) (UniProt P61073); test: FACS on 293T cells expressing CXCR4 variants
[11] = biological target: ΔN31-CXCR4 (human) (UniProt P61073); test: FACS on 293T cells expressing CXCR4 variants
[12] = biological target: human CXCR4 (wild type) (human) (UniProt P61073); test: FACS on 293T cells expressing CXCR4 variants
[13] = biological target: 2442 CXCR2/CXCR4 chimera; test: FACS on 293T cells expressing CXCR4 variants
[14] = biological target: 4442 CXCR2/CXCR4 chimera; test: FACS on 293T cells expressing CXCR4 variants
[15] = biological target: 2444b CXCR2/CXCR4 chimera (human) (UniProt P25025); test: FACS on 293T cells expressing CXCR4 variants
[16] = biological target: rhesus macaque monkey CXCR4 (rhesus macaque) (UniProt P79394); test: flow cytometry, scFv-Fc on transfected 293T cells

Binder | reactivity (MFI of chimeric receptor/MFI of wild type CXCR4 x 100%) [1] [%] | reactivity (MFI of chimeric receptor/MFI of wild type CXCR4 x 100%) [2] [%] | reactivity (MFI of chimeric receptor/MFI of wild type CXCR4 x 100%) [3] [%] | reactivity (MFI of chimeric receptor/MFI of wild type CXCR4 x 100%) [4] [%] | reactivity (MFI of chimeric receptor/MFI of wild type CXCR4 x 100%) [5] [%] | reactivity (MFI of chimeric receptor/MFI of wild type CXCR4 x 100%) [6] [%] | reactivity (MFI of chimeric receptor/MFI of wild type CXCR4 x 100%) [7] [%] | reactivity (MFI of chimeric receptor/MFI of wild type CXCR4 x 100%) [8] [%] | reactivity (MFI of chimeric receptor/MFI of wild type CXCR4 x 100%) [9] [%] | binding (+%) [10] [%] | binding (+%) [11] [%] | binding (+%) [12] [%] | binding (+%) [13] [%] | binding (+%) [14] [%] | binding (+%) [15] [%] | decrease of binding compared to human CXCR4 [16] [%]
B1 | 103 | 3.1 | 100 | 0.7 | -0.52 | 15.5 | 2.1 | 0.7 | 0.3 |  |  |  |  |  |  | 
B2 |  |  |  |  |  |  |  |  |  | 13 | 9 |  |  |  |  | 
B3 | 98.3 | -1.6 | 100 | 4.5 | 4.7 | 61 | 3.6 | 8.3 | 1.2 | -6.3 | -7 | 100 | -1.2 | 89.1 | -6.2 | 
B4 | 77.5 | 9.6 | 100 | 7.6 | 4.1 | 27.9 |  | 12.9 | 11.6 |  |  |  |  |  |  | 
B5 | 41.9 | 16.6 | 100 | 3.7 |  | 1.4 |  | 4.7 | 1 | 60 | 12.8 | 100 | -3.4 | -0.4 | 2.2 | 60
